Changes are numbered by the printed parent chain.
B1: ICln: 100 μM PUGNAc plus 5 mM glucosamine (protein)
parent chain: MSFLKSFPPPGPAEGLLRQQPDTEAVLNGKGLGTGTLYIAESRLSWLDGSGLGFSLEYPTISLHALSRDRSDCLGEHLYVMVNAKFEEESKEPVADEEEEDSDDDVEPITEFRFVPSDKSALEAMFTAMCECQALHPDPEDEDSDDYDGEEYDVEAHEQGQGDIPTFYTYEEGLSHLTAEGQATLERLEGMLSQSVSSQYNMAGVRTEDSIRDYEDGMEVDTTPTVAGQFEDADVDH
B2: ECFP-ICln Ser67Ala (natural protein, UniProt P54105 1-237, looked up)
chain: B1 parent chain with S67A
notes: ICln with Ser67Ala, made by site-directed mutagenesis of the vector with the wild-type ICln cDNA; also called Ser67Ala ICln; source: NIH/3T3, transfected for 48 h, in fixed cells; not shown: ECFP, N-terminal, kept

Experiments:
[1] = patch clamp, IClswell in wild-type ICln-transfected cells; settings: control: vehicle (0.1% DMSO plus 5 mM D-glucose)
[2] = target: T1, integrin αIIbshort-EYFP (amino acids 987-1039 of the human integrin αIIb chain fused to EYFP) (human, UniProt P08514-1 987-1039); assay: FRET or BRET; acceptor photobleaching FRET in fixed NIH/3T3 cells transfected for 48 h; donor ECFP-ICln, acceptor αIIbshort-EYFP; FRET efficiency in three-four plasma membrane ROIs of each cell; O-GlcNAcylation left unmodified, increased with 100 μM PUGNAc plus 5 mM glucosamine for 1 h, or reduced by co-transfection of OGA-L; settings: partners not purified
T1 construct: human integrin αIIb chain, amino acids 987-1039 of NP_000410.2 (integrin αIIbshort); also called αIIbs-EYFP; αIIb integrin; source: NIH/3T3, transfected for 48 h, in fixed cells; not shown: EYFP, C-terminal, kept
T1 sequence (P08514 987-1039): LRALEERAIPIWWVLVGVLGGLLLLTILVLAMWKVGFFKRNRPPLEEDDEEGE

Binder | other: channel current, other: % variation of current at +100 mV [1] | FRET efficiency relative to wild-type ICln [2]
B1 | decreases | 
B2 |  | ~3 fold
